{"source": "paper PMC12209146", "about": "(Cellular and Molecular Life Sciences: CMLS, 2025)", "molecular_target": "toxin B (TcdB) from Clostridioides difficile VPI 10,463 (Clostridioides difficile VPI 10,463, UniProt P18177 1-2366)", "sequence (P18177 whole entry)": "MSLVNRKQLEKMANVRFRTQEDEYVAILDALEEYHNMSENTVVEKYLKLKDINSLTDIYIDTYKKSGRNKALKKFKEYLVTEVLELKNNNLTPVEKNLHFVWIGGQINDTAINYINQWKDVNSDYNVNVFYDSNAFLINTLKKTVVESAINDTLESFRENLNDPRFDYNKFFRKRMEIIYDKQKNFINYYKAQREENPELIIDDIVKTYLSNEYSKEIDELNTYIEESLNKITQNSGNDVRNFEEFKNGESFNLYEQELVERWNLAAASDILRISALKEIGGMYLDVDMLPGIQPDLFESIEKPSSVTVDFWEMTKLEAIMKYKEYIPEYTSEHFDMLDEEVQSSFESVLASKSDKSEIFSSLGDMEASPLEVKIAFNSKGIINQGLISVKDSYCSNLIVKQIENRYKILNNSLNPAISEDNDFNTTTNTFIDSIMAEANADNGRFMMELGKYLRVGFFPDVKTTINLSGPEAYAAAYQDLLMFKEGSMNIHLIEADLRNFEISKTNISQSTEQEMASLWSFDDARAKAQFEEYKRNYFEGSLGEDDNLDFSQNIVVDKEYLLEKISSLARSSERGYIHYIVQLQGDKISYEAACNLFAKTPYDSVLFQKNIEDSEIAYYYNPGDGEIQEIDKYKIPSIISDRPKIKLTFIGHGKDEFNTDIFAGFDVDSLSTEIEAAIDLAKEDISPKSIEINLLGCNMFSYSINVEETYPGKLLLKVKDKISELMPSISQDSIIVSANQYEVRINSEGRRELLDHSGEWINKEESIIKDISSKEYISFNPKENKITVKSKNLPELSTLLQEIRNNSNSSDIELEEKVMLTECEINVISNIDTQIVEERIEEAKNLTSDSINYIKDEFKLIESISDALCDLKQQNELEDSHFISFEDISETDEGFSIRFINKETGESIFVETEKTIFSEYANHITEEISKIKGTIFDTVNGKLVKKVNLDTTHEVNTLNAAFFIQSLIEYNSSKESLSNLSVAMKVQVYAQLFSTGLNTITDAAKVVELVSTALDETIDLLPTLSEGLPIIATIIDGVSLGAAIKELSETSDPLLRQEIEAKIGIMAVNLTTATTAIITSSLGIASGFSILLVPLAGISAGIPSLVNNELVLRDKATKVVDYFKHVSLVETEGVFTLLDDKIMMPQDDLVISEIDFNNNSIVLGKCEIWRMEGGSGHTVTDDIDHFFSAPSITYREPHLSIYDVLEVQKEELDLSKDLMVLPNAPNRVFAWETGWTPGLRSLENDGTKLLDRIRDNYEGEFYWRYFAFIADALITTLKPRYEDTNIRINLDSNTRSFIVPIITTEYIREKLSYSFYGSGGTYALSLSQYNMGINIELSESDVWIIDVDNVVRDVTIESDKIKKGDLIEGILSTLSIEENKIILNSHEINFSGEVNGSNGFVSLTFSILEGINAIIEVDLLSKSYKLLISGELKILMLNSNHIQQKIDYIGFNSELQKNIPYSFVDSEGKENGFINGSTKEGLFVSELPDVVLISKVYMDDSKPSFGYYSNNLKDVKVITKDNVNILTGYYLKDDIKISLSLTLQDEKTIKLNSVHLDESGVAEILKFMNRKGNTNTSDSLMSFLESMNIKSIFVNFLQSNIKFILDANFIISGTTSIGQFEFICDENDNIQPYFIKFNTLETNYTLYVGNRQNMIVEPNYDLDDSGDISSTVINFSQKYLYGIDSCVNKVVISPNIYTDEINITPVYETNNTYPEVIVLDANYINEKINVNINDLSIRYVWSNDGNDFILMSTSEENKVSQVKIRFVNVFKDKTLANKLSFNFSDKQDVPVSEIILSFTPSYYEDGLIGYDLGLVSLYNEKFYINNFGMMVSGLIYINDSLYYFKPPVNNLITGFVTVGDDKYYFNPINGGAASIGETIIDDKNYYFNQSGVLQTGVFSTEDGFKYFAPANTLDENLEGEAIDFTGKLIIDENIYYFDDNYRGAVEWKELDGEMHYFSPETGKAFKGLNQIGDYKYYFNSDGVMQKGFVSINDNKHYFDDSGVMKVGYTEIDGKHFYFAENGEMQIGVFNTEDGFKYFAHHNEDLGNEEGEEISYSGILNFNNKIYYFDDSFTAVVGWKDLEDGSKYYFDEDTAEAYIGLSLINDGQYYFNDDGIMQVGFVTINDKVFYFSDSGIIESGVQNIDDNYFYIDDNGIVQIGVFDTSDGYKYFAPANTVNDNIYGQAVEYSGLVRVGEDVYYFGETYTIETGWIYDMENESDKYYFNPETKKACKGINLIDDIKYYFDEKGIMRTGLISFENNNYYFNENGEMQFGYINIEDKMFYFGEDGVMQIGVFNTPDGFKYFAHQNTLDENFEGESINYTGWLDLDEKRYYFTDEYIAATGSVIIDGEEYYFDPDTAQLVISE", "experiment": "co-sedimentation; in vitro precipitation assay: TcdB (50 ng, 2 ng/µl) with α-defensin-6 (6 µM) or Angie peptides (100 µM) in 25 µl PBS, 30 min at 37 °C; centrifuged 20 min, 14,000 rpm, 4 °C; supernatant and pellet immunoblotted for TcdB", "conditions": "both partners purified", "data": [{"binder": "AFTCHCRRSCYSTEYSYGTCTVMGINHRFCCL (peptide, UniProt Q01524 69-100, looked up)", "note": "[human peptide α-defensin-6]", "values": [{"measurement": "binding result", "result": "binds"}]}]}
